The results in this text go back to patent US20110053139A1.

Where two headings read alike, the source gives them in different places.

Assay [1] addresses Coxsackie virus B4 (JVB strain) viral particles (Coxsackie virus B4 (JVB strain)) (UniProt P08292).
Assay [2] shares this target. The assay can be described thus: SH-SAW biosensor (325 MHz), 204-4 mAb; Coxsackie B4 admixed with HSV-1 at equal concentration, high end of range.
In assay [3] the target is Herpes Simplex virus type 1 (HSV-1), purified virus. The assay can be described thus: SH-SAW biosensor (325 MHz), 204-4 mAb; HSV-1 alone at 3.6×10^6/µl.
Assay [4] has as its target Coxsackie virus B4 (JVB strain) viral particles (Coxsackie virus B4 (JVB strain)) (UniProt P08292). The assay can be described thus: SH-SAW biosensor (325 MHz), 204-4 mAb; Coxsackie B4 admixed with HSV-1 at equal concentration, low end of range.

Sequence of UniProt P08292 (P08292 2-849): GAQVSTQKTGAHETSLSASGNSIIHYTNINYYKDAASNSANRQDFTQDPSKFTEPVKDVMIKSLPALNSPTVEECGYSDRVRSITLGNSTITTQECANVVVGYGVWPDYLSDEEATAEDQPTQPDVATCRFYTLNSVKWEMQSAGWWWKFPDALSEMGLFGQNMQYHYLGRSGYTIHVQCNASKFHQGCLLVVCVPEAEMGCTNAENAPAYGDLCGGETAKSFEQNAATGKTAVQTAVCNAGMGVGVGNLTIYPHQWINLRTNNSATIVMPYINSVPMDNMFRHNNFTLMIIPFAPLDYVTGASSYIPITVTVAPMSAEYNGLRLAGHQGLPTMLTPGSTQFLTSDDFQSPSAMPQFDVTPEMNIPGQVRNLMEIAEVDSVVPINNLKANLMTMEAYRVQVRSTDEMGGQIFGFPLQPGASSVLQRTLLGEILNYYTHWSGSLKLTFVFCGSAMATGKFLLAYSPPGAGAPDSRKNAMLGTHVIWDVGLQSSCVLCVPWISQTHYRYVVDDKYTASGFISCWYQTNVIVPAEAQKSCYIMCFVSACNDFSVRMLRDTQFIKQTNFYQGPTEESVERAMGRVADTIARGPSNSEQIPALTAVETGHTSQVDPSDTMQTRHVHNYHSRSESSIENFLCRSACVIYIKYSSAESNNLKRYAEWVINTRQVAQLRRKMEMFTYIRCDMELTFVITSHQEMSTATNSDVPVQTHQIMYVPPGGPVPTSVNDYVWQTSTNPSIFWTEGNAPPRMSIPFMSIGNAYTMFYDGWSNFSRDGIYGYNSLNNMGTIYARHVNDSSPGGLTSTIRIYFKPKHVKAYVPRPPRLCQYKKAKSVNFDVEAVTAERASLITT

“IgG2a isotype monoclonal antibody (mAb) directed against the JVB strain of Coxsackie virus B4, produ”: the phase differential mass shift Δφ in assay [1] is 0.95 to 6.99 degrees; in assay [2] it was 7.24 degrees; in assay [3] it was 0.64 degrees; in assay [4], 1.09 degrees.
